Test results published in article PMC7717906 (eLife, 2020).

Molecular target: the molecule itself
Experiment: SEC

B1: His-MoOsm1 (enzyme)
chain: MAEFVRAQIFGTTFEITSRYSDLQPVGMGAFGLVCSARDQLTNQNVAIKKIMKPFSTPVLAKRTYRELKLLKHLKHENVISLSDIFISPLEDIYFVTELLGTDLHRLLTSRPLEKQFIQYFLYQIMRGLKYVHSAGVVHRDLKPSNILVNENCDLKICDFGLARIQDPQMTGYVSTRYYRAPEIMLTWQKYDVEVDIWSAGCIFAEMLEGKPLFPGKDHVNQFSIITELLGTPPDDVINTIASENTLRFVKSLPKRERQPLKNKFKNADPSAIDLLERMLVFDPKKRITATEALAHEYLTPYHDPTDEPIAEEKFDWSFNDADLPVDTWKIMMYSEILDYHNAEAGMQQMDDQFTGQ
- stoichiometry N: 2
